Data reported in paper PMC9076634, “Fibronectin binding protein B binds to loricrin and promotes corneocyte adhesion by Staphylococcus aureus” (Nature Communications, 2022).

Target: T1, recombinant GST-tagged human loricrin (GST-loricrin) (human, UniProt P23490 1-312)
T1 construct: loricrin, human, full length; also called GST-tagged full length loricrin
T1 sequence (looked up): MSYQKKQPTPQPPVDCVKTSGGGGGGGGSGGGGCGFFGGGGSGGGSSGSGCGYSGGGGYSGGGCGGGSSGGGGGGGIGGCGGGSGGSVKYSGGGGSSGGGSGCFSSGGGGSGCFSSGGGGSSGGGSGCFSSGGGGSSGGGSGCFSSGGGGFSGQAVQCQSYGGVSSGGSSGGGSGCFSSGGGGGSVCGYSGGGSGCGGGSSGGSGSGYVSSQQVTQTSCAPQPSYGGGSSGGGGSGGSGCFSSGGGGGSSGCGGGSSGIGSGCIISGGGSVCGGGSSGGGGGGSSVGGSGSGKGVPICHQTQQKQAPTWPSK
Experiment: dynamic force spectroscopy (AFM); as the single-molecule force spectroscopy, retraction speeds 1, 2.5, 5 and 10 µm s^-1; Bell-Evans fit of the high-force regime (loading rates 1.4 × 10^4 to 5 × 10^5 pN s^-1)
Details: one partner purified

B1: fibronectin binding protein B (FnBPB) on S. aureus SH1000 4X (pFnBPB) cells (natural protein)
chain: ASEQNNTTVEESGSSATESKASETQTTTNNVNTIDETQSYSATSTEQPSQSTQVTTEEAPKTVQAPKVETSRVDLPSEKVADKETTGTQVDIAQPSNVSEIKPRMKRSTDVTAVAEKEVVEETKATGTDVTNKVEVEEGSEIVGHKQDTNVVNPHNAERVTLKYKWKFGEGIKAGDYFDFTLSDNVETHGISTLRKVPEIKSTDGQVMATGEIIGERKVRYTFKEYVQEKKDLTAELSLNLFIDPTTVTQKGNQNVEVKLGETTVSKIFNIQYLGGVRDNWGVTANGRIDTLNKVDGKFSHFAYMKPNNQSLSSVTVTGQVTKGNKPGVNNPTVKVYKHIGSDDLAESVYAKLDDVSKFEDVTDNMSLDFDTNGGYSLNFNNLDQSKNYVIKYEGYYDSNASNLEFQTHLFGYYNYYYTSNLTWKNGVAFYSNNAQGDGKDKLKEPIIEHSTPIELEFKSEPPVEKHELTGTIEESNDSKPIDFEYHTAVEGAEGHAEGTIETEEDSIHVDFEESTHENSKHHADVVEYEEDTNPGGGQVTTESNLVEFDEDSTKGIVTGAVSDHTTIEDTKEYTTESNLIELVDELPEEHGQAQGPIEEITENNHHISHSGLGTENGHGNYGVIEEIEENSHVDIKSELGYEGGQNSGNQSFEEDTEEDKPKYEQGGNIVDIDFDSVPQIHGQNNGNQSFEEDTEKDKPKYEQGGNIIDIDFDSVPHIHGFNKHTEIIEEDTNKDKPNYQFGGHNSVDFEEDTLPQVSGHNEGQQTIEEDTTPPIVPPTPPTPEVPSEPETPTPPTPEVPSEPETPTPPTPEVPTEPGKPIPPAKEEPKKPSKPVEQGKVVTPVIEINEKVKAVVPTKKAQSKKSELPET
- koff: 5.8e-09 s⁻¹
